Data: US20160347802A1 (MAX PLANCK GESELLSCHAFT ZUR FOERDERUNG DER WISSENSCHAFTEN E …, published 2016)
Blank lines part the entries; values can stand above or below the binder they belong to.

Key:
[1] = biological target: T1, zebrafish DraxinA, AVEXIS prey or bait protein (zebrafish, UniProt Q4V9H3 24-360); experiment: AVEXIS, pentameric prey zebrafish DraxinB on bait zDraxinA
T1 construct: Prey and bait forms of the same protein are kept as one molecule; Preys are pentameric except in the monomeric-prey experiments; also called DraxinA prey protein
T1 chain: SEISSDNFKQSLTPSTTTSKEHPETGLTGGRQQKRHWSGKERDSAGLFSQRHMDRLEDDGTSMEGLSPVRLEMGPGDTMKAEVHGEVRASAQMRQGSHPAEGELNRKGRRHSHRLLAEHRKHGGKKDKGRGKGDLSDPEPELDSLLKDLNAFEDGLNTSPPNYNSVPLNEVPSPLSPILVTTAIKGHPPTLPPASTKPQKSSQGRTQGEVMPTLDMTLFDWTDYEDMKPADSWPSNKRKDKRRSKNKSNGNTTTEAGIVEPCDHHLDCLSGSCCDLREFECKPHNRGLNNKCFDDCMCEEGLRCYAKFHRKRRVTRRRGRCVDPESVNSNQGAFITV

[2] = biological target: T2, human DRAXIN, AVEXIS prey or bait protein (human, UniProt Q8NBI3 26-349); experiment: AVEXIS, pentameric prey zebrafish DraxinB on bait hDRAXIN
T2 construct: It was tested in both bait and prey orientations
T2 sequence: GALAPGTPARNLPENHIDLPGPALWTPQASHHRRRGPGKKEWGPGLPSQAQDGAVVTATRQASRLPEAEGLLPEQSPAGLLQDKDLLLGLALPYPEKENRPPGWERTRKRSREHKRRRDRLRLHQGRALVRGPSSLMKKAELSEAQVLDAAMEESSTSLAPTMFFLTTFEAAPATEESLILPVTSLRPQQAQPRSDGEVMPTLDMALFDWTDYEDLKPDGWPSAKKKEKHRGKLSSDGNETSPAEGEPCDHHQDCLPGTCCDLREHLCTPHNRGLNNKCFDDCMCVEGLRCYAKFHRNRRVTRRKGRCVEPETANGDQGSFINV

[3] = biological target: the molecule itself; experiment: AVEXIS, pentameric prey zebrafish DraxinB on bait zDraxinB
[4] = biological target: the molecule itself; experiment: AVEXIS, prey on bait zDraxinB, lower value; white = No binding
[5] = biological target: the molecule itself; experiment: AVEXIS, prey on bait zDraxinB, upper value; white = No binding
[6] = biological target: T1, zebrafish DraxinA, AVEXIS prey or bait …; experiment: AVEXIS, prey on bait zDraxinA, upper value; white = No binding
[7] = biological target: T1, zebrafish DraxinA, AVEXIS prey or bait …; experiment: AVEXIS, prey on bait zDraxinA, lower value; white = No binding
[8] = biological target: T3, zebrafish Netrin1a, AVEXIS bait or prey protein (zebrafish); experiment: AVEXIS competition: Netrin1a bait, monomeric DCC prey, Draxin added 30 min before the prey
T3 construct: Prey and bait forms are kept as one molecule; also called Ntn1a; Netrin1a bait

[9] = biological target: T3, zebrafish Netrin1a, AVEXIS bait or prey …; experiment: AVEXIS competition: Netrin1a bait, DCC prey, purified Draxin as inhibitor
[10] = biological target: T3, zebrafish Netrin1a, AVEXIS bait or prey …; experiment: AVEXIS competition: Netrin1a bait, monomeric DCC prey, Draxin added together with the prey
[11] = biological target: T3, zebrafish Netrin1a, AVEXIS bait or prey …; experiment: AVEXIS competition: Netrin1a bait preincubated with monomeric DCC prey, Draxin added 30 min after the prey
[12] = biological target: T3, zebrafish Netrin1a, AVEXIS bait or prey …; experiment: AVEXIS competition: Netrin1a bait, Unc5b prey, purified Draxin as inhibitor
[13] = biological target: the molecule itself; experiment: AVEXIS, prey NTN3 on bait NTN3
From the text: (§1) The Matn4-bait served as an internal prey-protein control and was used for normalization of the A486 nm values; conditioned medium (CM) serves as negative control; n=3.

[14] = biological target: T4, human Netrin1, recombinant AVEXIS protein (biotinylated when immobilised) (human, UniProt O95631 25-604); experiment: AVEXIS, prey NTN1 on bait NTN3
T4 construct: also called NTN1
From the text: as §1

[15] = biological target: T5, human Netrin-4, AVEXIS protein (human, UniProt Q9HB63 19-628); experiment: AVEXIS, prey NTN3 on bait NTN4
T5 construct: not shown: AVEXIS tag (bait or prey)
T5 sequence (looked up): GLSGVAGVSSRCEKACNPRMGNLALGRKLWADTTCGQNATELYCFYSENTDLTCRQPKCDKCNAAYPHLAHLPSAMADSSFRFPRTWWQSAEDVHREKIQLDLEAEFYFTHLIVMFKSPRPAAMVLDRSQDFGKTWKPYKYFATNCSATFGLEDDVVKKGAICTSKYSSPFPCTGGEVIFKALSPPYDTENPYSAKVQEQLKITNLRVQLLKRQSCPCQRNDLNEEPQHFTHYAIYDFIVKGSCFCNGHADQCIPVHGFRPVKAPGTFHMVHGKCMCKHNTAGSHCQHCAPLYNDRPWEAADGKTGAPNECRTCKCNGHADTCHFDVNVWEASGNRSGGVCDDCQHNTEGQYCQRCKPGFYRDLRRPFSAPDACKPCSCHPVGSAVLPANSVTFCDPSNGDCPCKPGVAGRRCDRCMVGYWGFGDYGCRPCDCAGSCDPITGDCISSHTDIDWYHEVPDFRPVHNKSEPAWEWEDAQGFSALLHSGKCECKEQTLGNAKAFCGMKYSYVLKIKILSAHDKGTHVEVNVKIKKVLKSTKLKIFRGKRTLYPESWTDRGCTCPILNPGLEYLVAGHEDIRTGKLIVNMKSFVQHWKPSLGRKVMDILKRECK
From the text: as §1

[16] = biological target: T6, human Netrin-G2, AVEXIS protein (human, UniProt Q96CW9 18-507); experiment: AVEXIS, prey on bait NTNG2; white = No binding
T6 construct: not shown: AVEXIS tag (bait or prey)
T6 sequence (looked up): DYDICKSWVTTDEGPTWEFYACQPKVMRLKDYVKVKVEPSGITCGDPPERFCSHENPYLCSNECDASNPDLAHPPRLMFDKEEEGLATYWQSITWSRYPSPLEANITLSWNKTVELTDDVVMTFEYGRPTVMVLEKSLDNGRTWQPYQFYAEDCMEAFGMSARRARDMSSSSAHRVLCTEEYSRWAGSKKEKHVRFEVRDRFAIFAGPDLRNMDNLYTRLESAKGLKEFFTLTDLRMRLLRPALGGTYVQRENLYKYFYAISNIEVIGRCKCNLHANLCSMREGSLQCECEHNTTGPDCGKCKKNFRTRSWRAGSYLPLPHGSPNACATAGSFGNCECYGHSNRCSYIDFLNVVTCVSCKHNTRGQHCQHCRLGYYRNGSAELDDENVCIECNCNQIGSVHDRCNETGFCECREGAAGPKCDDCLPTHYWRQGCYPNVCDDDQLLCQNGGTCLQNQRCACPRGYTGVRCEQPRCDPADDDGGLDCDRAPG
From the text: as §1

[17] = biological target: T7, Matn4 ECD, mono-biotinylated bait protein (positive control); experiment: AVEXIS, prey on bait Matn4 (+), positive control for the prey; dark = Binding
T7 construct: extracellular domain; also called Matn4-bait
From the text: as §1

[18] = biological target: T5, human Netrin-4, AVEXIS protein; experiment: AVEXIS, prey on bait NTN4; white = No binding
From the text: as §1

[19] = biological target: T4, human Netrin1, recombinant AVEXIS …; experiment: AVEXIS, prey on bait NTN1; white = No binding
From the text: as §1

[20] = biological target: T8, human Netrin-G1, AVEXIS protein (human, UniProt Q9Y2I2 29-510); experiment: AVEXIS, prey on bait NTNG1; white = No binding
T8 construct: not shown: AVEXIS tag (bait or prey)
T8 sequence (looked up): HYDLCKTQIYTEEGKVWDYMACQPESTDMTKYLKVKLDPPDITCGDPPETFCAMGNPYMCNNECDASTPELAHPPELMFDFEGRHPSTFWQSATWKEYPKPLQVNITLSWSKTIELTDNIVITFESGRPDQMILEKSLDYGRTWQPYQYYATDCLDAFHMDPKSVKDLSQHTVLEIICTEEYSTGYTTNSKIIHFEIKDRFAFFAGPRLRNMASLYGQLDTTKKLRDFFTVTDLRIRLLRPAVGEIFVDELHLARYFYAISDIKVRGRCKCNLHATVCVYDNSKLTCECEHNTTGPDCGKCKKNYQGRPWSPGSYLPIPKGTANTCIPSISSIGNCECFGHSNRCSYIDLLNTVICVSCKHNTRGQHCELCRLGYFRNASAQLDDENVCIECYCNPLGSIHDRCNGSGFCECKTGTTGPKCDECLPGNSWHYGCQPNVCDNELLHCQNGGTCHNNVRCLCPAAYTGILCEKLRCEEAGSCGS
From the text: as §1

[21] = biological target: the molecule itself; experiment: AVEXIS, prey on bait NTN3; white = No binding
From the text: as §1

binding result [1]: no binding | binding result [2]: no binding | A486nm [6]: 0.061 | A486nm [7]: 0.056
B1: zebrafish DraxinB, AVEXIS protein (ligand)
chain: TNTHHNSPMEVFSENIIIPPKPEASIHHHTHQRTDRGRKERMTASQLRERPRIAIFHTQNEGPDLEGLSPVRLEMEPADKRRVMTPRKKTFMGSDSLIQEKMNISPGAETPEKAMRRPTVRKVFGGHITRAPHEEESLASGKKRRVSFDQRLNKASFGSPTEPVLPAATVGTFILPITAAVDGNPNPSSEPQVRRYLGGDVAPTFNMALFDWTDYEDMRPGDKKQYSKKQGSEKQATQSPSTGLVRLTSENNVCKHHLDCLPGSCCNLRKHVCELHNRGFNNKCYDSCMCEEGLRCYAKSHRHYRITRKKGQCVDPEDLNHAVSRWMQM
binding result [3]: no binding | A486nm [4]: 0.059 | A486nm [5]: 0.057

IC50 (read off the curve) [8]: ~7 nM | IC50 (read off the curve) [9]: ~70 nM | IC50 (read off the curve) [10]: ~10 nM | IC50 (read off the curve) [11]: ~20 nM | IC50 (read off the curve) [12]: ~10 nM
B2: purified His-tagged full-length zebrafish Draxin protein (Draxin-CD4d3+4-6XHis) (ligand)
chain: SEISSDNFKQSLTPSTTTSKEHPETGLTGGRQQKRHWSGKERDSAGLFSQRHMDRLEDDGTSMEGLSPVRLEMGPGDTMKAEVHGEVRASAQMRQGSHPAEGELNRKGRRHSHRLLAEHRKHGGKKDKGRGKGDLSDPEPELDSLLKDLNAFEDGLNTSPPNYNSVPLNEVPSPLSPILVTTAIKGHPPTLPPASTKPQKSSQGRTQGEVMPTLDMTLFDWTDYEDMKPADSWPSNKRKDKRRSKNKSNGNTTTEAGIVEPCDHHLDCLSGSCCDLREFECKPHNRGLNNKCFDDCMCEEGLRCYAKFHRKRRVTRRRGRCVDPESVNSNQGAFITV
notes: Expressed in HEK293-6E cells and purified on HisTrap HP; also called purified full length DraxinA; purified DraxinA; not shown: rat Cd4d3+4 tag and 6xHis

binding result [14]: no binding | binding result [15]: no binding | A486nm [16]: 0.06 | A486nm [17]: 0.224 | A486nm [18]: 0.064 | A486nm [19]: 0.068 | A486nm [20]: 0.069
B3: human Netrin-3, AVEXIS protein (ligand)
chain: not shown
notes: not shown: AVEXIS tag (bait or prey)
binding result [13]: no binding | A486nm [21]: 0.068
